Assay results from patent CN117069840A (BEIJING BIOSYSTEMS BIOLOGICAL TECH CO LTD, dated 2023).
Each block holds one binder with its values, some of them ahead of it.

Legend:
Assay in all cases: indirect ELISA, antigen coated at 1 μg/mL, hybridoma supernatant, HRP-anti-mouse IgG
人源IL-4蛋白 = target: T1, 人源IL-4蛋白 (human, UniProt P05112 25-153)
T1 sequence (looked up): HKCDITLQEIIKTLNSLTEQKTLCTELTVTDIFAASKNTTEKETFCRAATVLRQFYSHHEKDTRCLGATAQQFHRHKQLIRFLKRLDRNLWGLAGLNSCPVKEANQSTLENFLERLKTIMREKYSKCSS

人源IL-10蛋白 = 人源IL-10蛋白 (human, UniProt P22301 19-178)
人源IL-15蛋白 = 人源IL-15蛋白 (human, UniProt P40933 49-162)
人源IL-7蛋白 = target: T2, 人源IL-7蛋白 (human, UniProt P13232 26-177)
T2 sequence (looked up): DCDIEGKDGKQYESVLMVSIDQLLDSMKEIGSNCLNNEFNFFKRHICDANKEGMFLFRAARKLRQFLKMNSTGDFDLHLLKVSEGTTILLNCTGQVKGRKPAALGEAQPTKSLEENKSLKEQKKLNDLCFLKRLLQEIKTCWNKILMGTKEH

人源IL-6蛋白 = 人源IL-6蛋白 (human, UniProt P05231 30-212)
人源TNF-alpha蛋白 = target: T3, 人源TNF-alpha蛋白 (human, UniProt P01375 77-233)
T3 construct: also called TNF-α

人源GM-CSF蛋白 = 人源GM-CSF蛋白 (human, UniProt P04141 18-144)
人源IL-2蛋白 = 人源IL-2蛋白 (human, UniProt P60568 21-153)
Chain of 人源IL-2蛋白 (P60568 21-153 limits assumed): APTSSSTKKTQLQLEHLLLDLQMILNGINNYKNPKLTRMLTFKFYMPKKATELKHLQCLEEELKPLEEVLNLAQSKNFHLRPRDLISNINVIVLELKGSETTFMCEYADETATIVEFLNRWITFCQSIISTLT

Chain of 人源IL-15蛋白 (P40933 49-162 limits assumed): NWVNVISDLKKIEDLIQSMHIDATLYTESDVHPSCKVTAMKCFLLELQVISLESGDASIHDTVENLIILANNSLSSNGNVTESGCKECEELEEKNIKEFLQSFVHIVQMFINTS
T3 sequence (P01375 77-233 limits assumed): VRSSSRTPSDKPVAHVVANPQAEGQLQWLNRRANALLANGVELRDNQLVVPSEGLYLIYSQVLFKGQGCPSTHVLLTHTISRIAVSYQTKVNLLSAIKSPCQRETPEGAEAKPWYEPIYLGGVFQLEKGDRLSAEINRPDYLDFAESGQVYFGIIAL
Chain of 人源IL-10蛋白 (P22301 19-178 limits assumed): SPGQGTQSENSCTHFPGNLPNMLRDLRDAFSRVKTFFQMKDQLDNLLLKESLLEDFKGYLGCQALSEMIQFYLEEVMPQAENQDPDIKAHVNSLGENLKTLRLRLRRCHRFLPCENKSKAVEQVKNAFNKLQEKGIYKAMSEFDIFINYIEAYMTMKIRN
Chain of 人源GM-CSF蛋白 (P04141 18-144 limits assumed): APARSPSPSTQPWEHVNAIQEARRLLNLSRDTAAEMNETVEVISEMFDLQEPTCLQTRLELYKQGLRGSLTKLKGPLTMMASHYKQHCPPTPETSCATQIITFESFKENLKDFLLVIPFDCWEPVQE

binding result (人源IL-4蛋白): no binding
binding result (人源IL-10蛋白): no binding
binding result (人源IL-15蛋白): no binding
binding result (人源IL-7蛋白): no binding
binding result (人源IL-6蛋白): no binding
binding result (人源TNF-alpha蛋白): no binding
binding result (人源GM-CSF蛋白): no binding
binding result (人源IL-2蛋白): no binding
B1: 抗体13A6G6 (antibody, V domains shown)
VH: EVKLEESGGGLVQPGGSTKLSCAASGFTFSDAWMNWVRQSPEKGLEWIAEIRTKTSNHAAYYAASVKGRFTISRDDSKSSVYLQMNSLRPEDTGIYYCTRFDYWGQGTTLTVSS
VL: DVQITQSPSYLAASPGETITINCRASKNINKHLAWYHDKPGKTNKLLIYSGSTLQSGTPSRFSGSGSGTDFTLTISSLEPEDFAVYYCQQHNEYPYTFGGGTKLAIK
notes: Mouse monoclonal antibody from a hybridoma; also called Clone 13A6G6; 克隆号13A6G6

binding result (人源IL-4蛋白): no binding
binding result (人源IL-10蛋白): no binding
binding result (人源IL-15蛋白): no binding
binding result (人源IL-7蛋白): no binding
binding result (人源IL-6蛋白): no binding
binding result (人源TNF-alpha蛋白): no binding
binding result (人源GM-CSF蛋白): no binding
binding result (人源IL-2蛋白): no binding
B2: 抗体3G6D7 (antibody, V domains shown)
VH: EIQLQQSGPELVKPGASVKVSCKASGYGFTSYNMNWVKQSHGKSLEWIGYIDPYNGGSGYNQKFKGKATLTVDKSSSTAYMHLISLTSDDSAVYYCARGDYDGGYYGMDYWGQGTSVTVSS
VL: DILLTQSPAILSVSPGESVSFSCRASQSVGTSIHWFQQRTNGSPRLLIKYASESISGIPSRFSGSGSGTDFTLIINSVESEDIADYYCQQSNGWPFTFGSGTKLEIK
notes: Mouse monoclonal antibody from a hybridoma; also called Clone 3G6D7; 克隆号3G6D7
